This passage reports Kd results from publication PMC3264736.

This data set has as its target Pitx2 homeodomain wild-type (UniProt Q99697 85-144). As to the kind of experiment: ITC.

B1: TAATCC consensus DNA (dsDNA)
DNA 1: GCTCTAATCCCCG
DNA 2: CGGGGATTAGAGC
In turn, B1 returned a Kd of 66 nM.
